Data published in the DeepSol protein solubility set.

Assay: soluble on expression in E. coli; label from the status in PepcDB or PDB records

| Sequence | soluble on expression in E. coli |
| --- | --- |
| MVQKLSRPSPDFLKGLKSILQGDHPSLKQLEQDINIFYMNQRQSQSMLEERKLYVALVRKYLKSEGVTKQLASQGIKLRGLSVFGSFPTHCASKDSDLDLCVCATATGNKKQLPVIILQAIFRDMMYSKEGQNIFGENVVSGISFVQTAKVPIIRFKINDVPVDLSATFDDNPRTSLAAKYINAYCQLDDRFKILVMFLKKWMKSEGRAEDHLRIYPNSYSIILLLIHVLQWYDILPNLHQTHSDLFHRGNFKLSDLAELRHEFKFPLDENTISMHRKRPSNDLTVVQLLYLFACQYSNHVVLLNYRFNMRNGEIEALSQKDQDYQITILDAYDVRNPGRSARNALDLVKTLEALKSLLVQPHEGMFKTVMEITRNRTYERVVPPPQVLYQDYDMQFGADPYNMPLVGSVEYQQWLEQVAMHHQIQMMQGQMMQQQIVFTAPEMYYYSQQQQQPHPIFGIQQSSQFF | not soluble |
| MVQNIPIYIQIHDKIKEDIEKGVWSIGDRLPSERELALKFDVSRMTLRQAIQTLADEGILERKIGSGTYVARKKVQETMTGTTSFTEITLSQNRVPSSRTVSYFVAKPSSSEMEKLQLGPEDSILRMERIRFADDIPICFEVASIPYSLVSQYGKSEITNSFYKTLEAKSGHKIGHSNQTISAVQASEQIAEYLEIKRGDAILRVRQVSYFENGLPFEYVRTQYAGSRFEFYLEK | not soluble |
| MVRVDQNLFNEVMYLLDELSQDITVPKNVRKVAQDSKAKLSQENESLDLRCATVLSMLDEMANDPNVPAHGRTDLYTIISKLEALS | soluble |
| MVSAMSNIWSNWSGFVTAEPRLIASPADAGELGDLVRTAPGPVRVVGAGHSFTPLVKSQGTILSLEKLEGLVSHDPQKHQARVKAGTRLGPLMHILQGIGQGLPNMGDIDRQAIGGALGTATHGSGPTLGAYHTQLETVQIVDGLGKVRDFTRAGDQDMIHAIGVALGAFGVLSEVTLNNIATYRLRRRKWVLPIGDMLRDFEKMMTAHRSAEFYYIPFSGYAQFIASDFSTEATTTRPTDDDEGSLRTLRRLRTGLAWLPSLRRRLILGAVAKVPSEDYVQDWLNVYASDRQTKFNEMEYHLPFEEGPKALAEIIELTEKRFPEVYFPMEVRSVAPDKFWLSPFYNRPTCSIAIHHDAASDPLPFMQAAEPIFRRYGGRPHWGKMHSLKAADFKKLYPRWDDAMAVRRDIDPQNRFVSPYMAGLFGIEPSPFGIDPLEHHHHHH | not soluble |
| MVSDISNSRILRRRSSTFTDPTNLLAVHELRSRILQDPAISVKHLSDDVHRIRHEDWWLDRFLGSVNYDVDIAYAIMLECLKWRRNFEVDRISLLSLKPLLDNQLMYLHGKDLQNRHMLWIMMNKYKNGDDGFEKLFTFWIERHYMEYKGCQPLTVFIDMTGTGLKNMSFDAMKFIIHSSKYYYPNSIESILIFENPAILNASWKVIGSWLESSAASQRHDLLTFVTKLSVTHYVPKSHLLEHQGGTDTFKFTMDELAKCLPPPPPPKPSPKLLQQRMHSIDDSTNNNNVKFDEESTTKRAPSLSRRSSRGPKSRKSHIPPSLRPLIENRVNAPSDDWSSNDFVSITPRDELRLEKLDGENDLLDVVLVKNQSSDTPIMFKFKTTSPEKFRVRPSSGIVQPGTTEIIRVYLQYGESTDTRGTKKSFCFLQWNRHQQTLKASLNSSNQQATRQNSNSNVDCQKI | not soluble |
| MVSENSDATNVETTALALKILVAGGFGVGKTTMVGAVSEIRPLRTEELLSEAGQSVDDTDGVDQKVTTTVAMDFGRITIRSGLSLYLFGTPGQDRFWFLWDELSQGALGAVVLADTRRLEDCFPAVDYFEHRHIPFVVAVNCFAGARTYGAHDVSRALDLDQGTPVVLCDARDRDSGKEVLIRLVEYAGRMHTARLLDSVGLEHHHHHH | not soluble |
| MVSLTMVPIDALLSKEVNAFIVQHKHASVAELMLRMPVFTVDSRWIAAQIEGWQKASQKLPLWASTENIIYPIRLSMEQCSSERTAHYKSTLMSGERLVDLTGGFGVDSFYLSKSFNEVIYIEQQEDLAEIAAHNFSTLNQNNIVVKTADSDEYLKDIAEKIDVIFLDPARRKEMRKVYKLSDCEPNVVALQSFYFSKADVILIKTSPMLDITEATRQLTGIKEIHVVSVDNECKEVLYLLEKNYSGKATYICAHDYKKQLQLFSFTIAAEQAVTLSYSAPLAYLYEPNPSILKAGGFNSITQKYEVFKLHASSHLYTSASEVSDFPGRTFKIKETVGYSKKDIQAAVPGGKANIQTRNFPDSVEAIRKKTGLKDGGNIFIFATTLHDLSKVLLICEKI | not soluble |
| MVSYGSHSSEVSKVLKTPKFVLRYGNVSSKQRFALKRKINYKLRESKYQEYLNEYNTFVLYDWENSGAGSLVDSSYNLPSLWKEFITEGISKGAINDKLPTVFMKRKLTNSALGHCLGLDFLTDPSESEHEYRCMFQTVQDIPSLSQLILFNSMPNVPVRLKLHTIGININFGCKRSLISNGGDQDTEMSEAVSYIQPLLEESSRMYRNLNYWKLLKIARNNKKDEPLDQSTRIKSQVKLLLSQLATNRITSPSVTDHGGHNWLIFTRRRL | not soluble |
| MVTPSLRLVFVKGPREGDALDYKPGSTIRVGRIVRGNEIAIKDAGISTKHLRIESDSGNWVIQDLGSSNGTLLNSNALDPETSVNLGDGDVIKLGEYTSILVNFV | soluble |
| MVTSPPTSSPSQRSYSPQDWLRGYQSQPQEWDYWVEDVEGSIPPDLQGTLYRNGPGLLEIGDRPLKHPFDGDGMVTAFKFPGDGRVHFQSKFVRTQGYVEEQKAGKMIYRGVFGSQPAGGWLKTIFDLRLKNIANTNITYWGDRLLALWEGGQPHRLEPSNLATIGLDDLGGILAEGQPLSAHPRIDPASTFDGGQPCYVTFSIKSSLSSTLTLLELDPQGKLLRQKTETFPGFAFIHDFAITPHYAIFLQNNVTLNGLPYLFGLRGAGECVQFHPDKPAQIILVPRDGGEIKRIPVQAGFVFHHANAFEENGKIILDSICYNSLPQVDTDGDFRSTNFDNLDPGQLWRFTIDPAAATVEKQLMVSRCCEFPVVHPQQVGRPYRYVYMGAAHHSTGNAPLQAILKVDLESGTETLRSFAPHGFAGEPIFVPRPGGVAEDDGWLLCLIYKADLHRSELVILDAQDITAPAIATLKLKHHIPYPLHGSWAQT | soluble |
| MVVDTEYYDLLGVSTTASSIEIKKAYRKKSIQEHPDKNPNDPTATERFQAISEAYQVLGDDDLRAKYDKYGRKEAIPQGGFEDAAEQFSVIFGGDAFASYIGELMLLKNLQKTEELNAEDEAEKEKENVETMEESPADGKTNGTTNAVDAALGNTNEKDDKNKARTTSGNLTVHDGNKKNEQVGAEAKKKKTKLEQFEEEQEVEKQKRVDQLSKTLIERLSILTESVYDDACKDSFKKKFEEEANLLKMESFGLDILHTIGDVYYEKAEIFLASQNLFGMGGIFHSMKAKGGVFMDTLRTVSAAIDAQNTMKELEKMKEASTNNGPLFDKDGNEQIKPTTEELAQQEQLLMGKVLSAAWHGSKYEITSTLRGVCKKVLEDDSVSKKTLIRRAEAMKLLGEVFKKTFRTKVEQEEAQIFEELVAEATKKKRHT | not soluble |
| MVVFVASSRWDPSPDVIGQLCCLVSGGRSVPSTALKLGLSLSAAYRLAREYQLPVRVQTSTSASVTKSIETLWKQDVKPSDISTRLNVGTSVVYRIGIELGLWQRNPHGRRASATSRRCEYVMLRFGAMSRKDTAKVVGINPRETLDIDKGVTKLNGVGRVPCVPDEPDTELYKRLMQVVPYVDGRQAVPVEVIPQHAIDKRMSPR | not soluble |
| MVVKFTKSEALHKEALEHIVGGVNSPSRSFKAVGGGAPIAMERGKGAYFWDVDGNKYIDYLAAYGPIITGHAHPHITKAITTAAENGVLYGTPTALEVKFAKMLKEAMPALDKVRFVNSGTEAVMTTIRVARAYTGRTKIMKFAGCYHGHSDLVLVAAGSGPSTLGTPDSAGVPQSIAQEVITVPFNNVETLKEALDKWGHEVAAILVEPIVGNFGIVEPKPGFLEKVNELVHEAGALVIYDEVITAFRFMYGGAQDLLGVTPDLTALGKVIGGGLPIGAYGGKKEIMEQVAPLGPAYQAGTMAGNPASMASGIACLEVLQQEGLYEKLDELGATLEKGILEQAAKHNIDITLNRLKGALTVYFTTNTIEDYDAAQDTDGEMFGKFFKLMLQEGVNLAPSKYEAWFLTTEHTKEDIEYTIEAVGRAFAALADNK | soluble |
| MVVSIIPQFPDIKVSLALFEQVKNAKEIRSKMSELSTSFAFIDPRLVCSGEQMYSAIYKTLIEVKYNKMRTRNLNSECVLCLSPTSNISDAFLKFGIKDDSSQLICLKFHTNTDDVDKEQLRTIMTSIVKGQEIEFNDDNLSRFYDEALIRKVCFNNKFEVKTSTASPETHCTNFTFVFLLFCFYLLDL | not soluble |
| MVVYGKQKYIMKRCFYMNKKLKTEAVDHLFQAILTLKSTEECYSFFEDVCTVNELLSFSQRYEVAKMLREKRTYLEIADKTGASTATISRVNRSLNYGNDGYDMVFKRLEDQAAEDNEA | not soluble |
| MVYFEEVRRHIRIDAAHVYGGLLATLTALYEYHQIPYEGIPVGTIKKKMTGKGNASKEEIIKVVCAKGHASCDDNEADALATLHVMKGKEIRHVN | not soluble |
| MVYWEYKINQTRRVMKNLKFQSVFDIIGPVMVGPSSSHTAGAVRIGKIVSAIFGDAPTEVEFQLFNSFAKTYRGHGTDVALVAGILGMETDDPDIPHALDIAHEKGIKVYWKINKDSKAPHPNTTRITLKNATKTISATGISIGGGNIQVTELNGF | not soluble |
| MWASPSPSVTVEFLEADSRLGGREVSLCKVAGQPDIRCECGWLELQPTRRSVNYEVVSSGGVTQSAALVTADFQSAEERSRLTVTVQLSSLARDMRDGYHEGFGAGLNNLASVAGRTMVLERVIKVPRNIVWKAWMNEKTLPQWWGPEGFSCRTKRIDLRTGGEWVFDMIGPDGTVFPNHHRYVEIRPEERLAYTLLWGENGPKHADAWASFEDQDGATKVVLGMVFSTDAEFQQAKGFGAVELGQQTLGKLERFAKFFLEHHHHHH | soluble |
| MWGETFDDFENDEGEMAMAKQNLIAEPARADFTFAKLPLGIQPVDFMKTHFAETAGKSMQFRKGTTTLAFVYEPATPADKGGIIVAVDSRASSGEYISSKSVMKILDIGDRMVATMAGGAADCQFWTRIVAKYCTLYELREKTSITVSAASKYFANTLYGYRGQGLSVGSMVAGYDKKGPQIFKVDSEGDRCQLKVCSVGSGSLNAYGILDNHYKPKMTDDEARKLGLRAIMHATYRDSGSGGVCNLCHITPTEKIRLPPMDVSKLWYEFADELGRDITYNPVE | soluble |
| MWIEELANGKFKYIERYTDPLTNKYKKVSVTLDKNSSQAQKKAGLILQEKIEDRLAIRNHSEMTYGELKKEYLKQWIPTVKDSTKRGYLVSDSHIATVLPDDTIINKLTKRDIRLIIDKLLKHNSYHVTHKCRKRLHAIFSYAIQMDYMTSNPTENVLVPKPKDDYKPEKVLYLTSNEVYDLCNRMIDNDEQTLADIVLFMFLTGVRYGELSCLTYDKIDFENKEILINATYDFNTREITTTKTKKSTRKISVSDNILDIVNRQKKTSSFVFPNSNGVPILNAYINKRLKIYGDYHTHLFRHSHISFLAEKGIPLNAIMDRVGHSDPKTTLSIYSHTTVNMKEIINKQTAPFVPLLKSE | not soluble |
| MWIIEAEGDILKGKSRILFPGTYIVGRNVSDDSSHIQVISKSISKRHARFTILTPSEKDYFTGGPCEFEVKDLDTKFGTKVNEKVVGQNGDSYKEKDLKIQLGKCPFTINAYWRSMCIQFDNPEMLSQWASNLNLLGIPTGLRDSDATTHFVMNRQAGSSITVGTMYAFLKKTVIIDDSYLQYLSTVKESVIEDASLMPDALECFKNIIKNNDQFPSSPEDCINSLEGFSCAMLNTSSESHHLLELLGLRISTFMSLGDIDKELISKTDFVVLNNAVYDSEKISFPEGIFCLTIEQLWKIIIERNSRELISKEIERLKYATASNSTPQKIAAALEHHHHHH | soluble |
